Series [1] deals with T1, D. hansenii Get3 (Debaryomyces hansenii, UniProt Q6BSM0).
T1 construct: recombinant, expressed and purified; homo-dimer; finger domain not visible in electron density
T1 sequence (Q6BSM0 1-348): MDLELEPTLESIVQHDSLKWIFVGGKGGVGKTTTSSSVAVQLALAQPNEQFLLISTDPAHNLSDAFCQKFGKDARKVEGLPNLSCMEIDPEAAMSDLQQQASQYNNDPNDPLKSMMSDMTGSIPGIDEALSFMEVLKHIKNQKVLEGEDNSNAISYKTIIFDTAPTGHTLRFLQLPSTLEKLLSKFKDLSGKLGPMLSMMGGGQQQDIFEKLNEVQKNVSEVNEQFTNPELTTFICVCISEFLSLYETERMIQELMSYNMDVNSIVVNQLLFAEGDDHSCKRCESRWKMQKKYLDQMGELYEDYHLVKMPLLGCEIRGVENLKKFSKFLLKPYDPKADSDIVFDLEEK
The experiment in a line: X-ray crystallography, […] A, co-crystallization. As to conditions: 2 mM ADP, 1 mM MgCl2, 5 mM KCl, 0.2 M ammonium mono-basic phosphate, 20% glycerol; nucleotide-binding domain, closed dimer.

Series [2] deals with the molecule itself. Briefly: crystal structure; S. cerevisiae Get3, nucleotide-free, 2.3 Å; hanging drop, 100 mM MES pH 6.0, PEG 3350 15%, 0.2 M ammonium sulfate; two monomers in the asymmetric unit.
Series [3] concerns the molecule itself. The experiment in a line: crystal structure; D. hansenii Get3 with ADP, 1.8 Å; hanging drop, 0.2 M ammonium mono-basic phosphate, 20% glycerol, 1 mM MgCl2, 5 mM KCl, 2 mM ADP.

As usually defined, the stoichiometry N is the number of molecules, sites or subunits per partner or assembly.

As to `Nc1ncnc2c1ncn2[C@@H]1O[C@H](COP(=O)(O)OP(=O)(O)O)[C@@H](O)[C@H]1O` [ADP], the “X-ray crystallography, 1.8 A, co-crystallization” value in series [1] is recorded as “The bound ADP molecule can be clearly identified in the Get3 nucleotide-binding domain (NBD)”.

B1: S. cerevisiae full-length Get3 (enzyme, UniProt Q12154 1-354, looked up)
chain: MDLTVEPNLHSLITSTTHKWIFVGGKGGVGKTTSSCSIAIQMALSQPNKQFLLISTDPAHNLSDAFGEKFGKDARKVTGMNNLSCMEIDPSAALKDMNDMAVSRANNNGSDGQGDDLGSLLQGGALADLTGSIPGIDEALSFMEVMKHIKRQEQGEGETFDTVIFDTAPTGHTLRFLQLPNTLSKLLEKFGEITNKLGPMLNSFMGAGNVDISGKLNELKANVETIRQQFTDPDLTTFVCVCISEFLSLYETERLIQELISYDMDVNSIIVNQLLFAENDQEHNCKRCQARWKMQKKYLDQIDELYEDFHVVKMPLCAGEIRGLNNLTKFSQFLNKEYNPITDGKVIYELEDKE
notes: Get3 (Arr4) ATPase, S. cerevisiae, full length; in the crystal residues 191-210 (molecule A) and 93-116 (molecule B) are not seen; Se-Met protein was used for phasing only; One Zn ion is held between the two monomers; also called ScGet3; Arr4; source: E. coli, purified (Ni-chelating column, gel-filtration column)
For the molecule B1, the “stoichiometry N” value in series [2] stood at 2.

B2: D. hansenii Get3 (enzyme)
chain: MDLELEPTLESIVQHDSLKWIFVGGKGGVGKTTTSSSVAVQLALAQPNEQFLLISTDPAHNLSDAFCQKFGKDARKVEGLPNLSCMEIDPEAAMSDLQQQASQYNNDPNDPLKSMMSDMTGSIPGIDEALSFMEVLKHIKNQKVLEGEDNSNAISYKTIIFDTAPTGHTLRFLQLPSTLEKLLSKFKDLSGKLGPMLSMMGGGQQQDIFEKLNEVQKNVSEVNEQFTNPELTTFICVCISEFLSLYETERMIQELMSYNMDVNSIVVNQLLFAEGDDHSCKRCESRWKMQKKYLDQMGELYEDYHLVKMPLLGCEIRGVENLKKFSKFLLKPYDPKADSDIVFDLEEK
notes: Get3 ATPase of the yeast D. hansenii (Debaryomyces hansenii); finger domain not seen in the electron density; Crystallised with ADP and Mg; also called DhGet3; source: expressed and purified
In the case of B2, the “stoichiometry N” value in series [3] was 2.

For the origin of these results see publication PMC2778870, “The Crystal Structures of Yeast Get3 Suggest a Mechanism for Tail-Anchored Protein Membrane Insertion” (PLoS ONE, 2009).
